Consider one molecule from patent US20240400670A1 (JIANGSU HENGRUI PHARMACEUTICALS, published 2024).

In experiment [1] the target is T1, human APRIL (R&D Systems, 5860-AP-010/CF) (human, UniProt O75888 105-250, limits assumed).
T1 sequence (looked up): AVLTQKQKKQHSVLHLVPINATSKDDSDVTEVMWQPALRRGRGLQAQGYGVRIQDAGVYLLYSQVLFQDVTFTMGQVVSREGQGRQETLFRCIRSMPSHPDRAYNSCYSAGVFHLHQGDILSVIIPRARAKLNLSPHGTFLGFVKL
Description: cell-based or functional assay.

For experiment [2], the target named is BAFF (R&D Systems, 7537-BF). Description: cell-based or functional assay.
Experiment [3] addresses T2, human BAFF (ACROBiosystems, BAF-H52D4) (human, UniProt Q9Y275 134-285).
T2 construct: detected with anti-His-HRP
Description: ELISA, sample coated, BAFF titrated, anti-His-HRP. As to the method: (§1) The specific procedures are as follows:
The test sample was diluted to 2 μg/mL with a PBS (BasalMedia, B320) buffer at pH 7.4 and added to a 96-well microplate (Coming, 3590) at 100 μL/well. The plate was incubated at 4° C. overnight. After the liquid was discarded, 5 % skim milk (BD, 232100) diluted with PBS was added at 300 μL/well for blocking, and the mixture was incubated at 37° C. for 2 h. After the blocking was completed, the blocking solution was discarded, and the plate was washed 3 times with a PBST buffer (pH 7.4, PBS containing 0.1 % tween-20). […] After the incubation, the plate was washed 3 times with PBST. […] After the plate was washed 3 times with PBST, a TMB chromogenic substrate (KPL, 5120-0077) was added at 100 μL/well, and the mixture was incubated at room temperature for 10⁻¹⁵ min, and then 1 M H₂SO₄ was added at 50 μL/well to terminate the reaction. The absorbance values at 450 nm were taken using a microplate reader. The binding curves of antibodies to antigens were fitted using software, and the EC₅₀ values were calculated.
On the technique in general: An ELISA detects its analyte on a solid surface through an enzyme-linked reagent.

Experiment [4] concerns the target T3, human BAFF (Sino Biological, 10056-HNCH) (human, UniProt Q9Y275 134-285).
T3 construct: also called BAFF protein
Description: SPR (Biacore), Protein A capture of sample, 1:1 model. The protocol:
(§2) A certain amount of test sample was subjected to affinity capture by a biosensor chip Protein A (GE, 29127556), and then antigens at a series of concentration gradients were allowed to flow on the surface of the chip. The reaction signals were detected in real time by using Biacore (GE, 8 K) to obtain association and dissociation curves. After the dissociation was completed for each cycle, the biochip was washed and regenerated with a 10 mM glycine-hydrochloric acid solution at pH 1.5 (GE, BR-1003-54). Fitting was performed based on the experimental data using BlAevaluation version 4.1 software with a 1:1 model, and affinity values were obtained.
For orientation: SPR reads the build-up and loss of mass on a sensor chip optically.

The target of experiment [5] is cynomolgus monkey BAFF (Kactus, BAF-CM412) (cynomolgus monkey, UniProt A0A2K5V2X4 134-285). The experiment is described as above. As to the method: as §2
Experiment [6] has as its target mouse BAFF (Acro Biosystems, BAF-M521y) (mouse, UniProt Q9WU72 127-309, limits assumed). The experiment is described as above. The protocol:
as §2

Experiment [7] concerns the target T1, human APRIL (R&D Systems, …). Described as above. As to the method: as §2
Experiment [8] addresses T3, human BAFF (Sino Biological, 10056-HNCH). Description: competition ELISA, blocks BAFF/BCMA; BCMA coated, biotin-BAFF. The protocol: as §1
(§3) The receptor protein was diluted to 2 μg/mL with a PBS (BasalMedia, B320) buffer at pH 7.4 and added to a 96-well microplate (Corning, 3590) at 100 μL/well. The plate was incubated at 4° C. overnight. After the liquid was discarded, 1 % Casein blocking solution (Thermo, 37528) was added at 200 μL/well for blocking, and the plate was incubated at 37° C. for 2 h. After the blocking was complete, the blocking solution was discarded, and the plate was washed 3 times with a PBST buffer (pH 7.4 PBS containing 0.1 % tween-20) for later use. After the biotin-labeled ligand protein at a fixed concentration was mixed with an antibody or fusion protein diluted in a gradient, the mixture was pre-incubated at 37° C. for 30 min and then added to the blocked microplate. The plate was incubated at 37° C. for 1.5 h. After the incubation was complete, the plate was washed 3 times with PBST. Streptavidin-HRP (Invitrogen, 434323, diluted at 1:4000) was added at 100 μL/well, and the plate was incubated at 37° C. for 1 h. The supernatant was removed. […] The absorbance values at 450 nm were taken using a microplate reader. Curves for the inhibition of binding of the ligands to the receptors were fitted using software, and the IC₅₀ values were calculated.

The target is the same in experiment [9]. Description: competition ELISA, blocks BAFF/TACI; TACI coated, biotin-BAFF. As to the method:
as §1, §3

Experiment [10] has as its target T1, human APRIL (R&D Systems, …). Description: competition ELISA, blocks APRIL/BCMA; BCMA coated, biotin-APRIL. The protocol:
as §1, §3

Experiment [11] has the same target. Description: competition ELISA, blocks APRIL/TACI; TACI coated, biotin-APRIL. The protocol:
as §1, §3

Experiment [12] has as its target T3, human BAFF (Sino Biological, 10056-HNCH). Description: competition ELISA, blocks BAFF/BAFF-R; BAFF-R coated, biotin-BAFF. The protocol: as §1, §3

B1: RCT-18 (Fc fusion)
chain: SRVDQEERFPQGLWTGVAMRSCPEEQYWDPLLGTCMSCKTICNHQSQRTCAAFCRSLSCRKEQGKFYDHLLRDCISCASICGQHPKQCAYFCENKLRSPVNLPPELDKTHTCPPCPAPEAEGAPSVFLFPPKPKDTLMISRTPEVTCVVVDVSHEDPEVKFNWYVDGVEVHNAKTKPREEQYNSTYRVVSVLTVLHQDWLNGKEYKCKVSNKALPSSIEKTISKAKGQPREPQVYTLPPSRDELTKNQVSLTCLVKGFYPSDIAVEWESNGQPENNYKTTPPVLDSDGSFFLYSKLTVDKSRWQQGNVFSCSVMHEALHNHYTQKSLSLSPGK
notes: control TACI-Fc; also called telitacicept; RC18
Turning to B1, in [1], the “Activity in inhibiting proliferation of B cells (IC50, pM), APRIL” value was found to be 1990 pM. For the same molecule, the “Activity in inhibiting proliferation of B cells (IC50, pM), BAFF” value in experiment [2] came out at 70.1 pM. The molecule also had a concentration giving a half-maximal response (EC50) in experiment [3] of 21.5 nM. Further, the Kd stood at 0.186 nM in experiment [4], 0.258 nM in [5], 0.121 nM in [6] and 0.0439 nM in experiment [7]. Besides, the dissociation rate constant (koff) was determined as 0.00018 s⁻¹ in experiment [4], 9.54e-05 s⁻¹ in [5], 8.98e-05 s⁻¹ in [6] and 0.00753 s⁻¹ in experiment [7]. In addition, the on-rate constant (kon) in experiment [4] was 964000 M⁻¹ s⁻¹; in experiment [5] it was 370000 M⁻¹ s⁻¹; in [6] it was 740000 M⁻¹ s⁻¹; in experiment [7], 1.72e+08 M⁻¹ s⁻¹. Moreover, the concentration for half-maximal inhibition (IC50) was 4.86 nM in experiment [8]; 6.07 nM in experiment [9]; 484 nM in experiment [10]; 64.9 nM in [11]; 7.57 nM in experiment [12].

The EC50 is the concentration needed to bring the measured effect to its halfway point. The term Kd denotes a measure of binding affinity in units of concentration. As usually defined, the koff is a measure of how fast the partners let go of each other. What is called kon is the second-order rate constant of association. The IC50 is the concentration needed to halve the response being measured.
